{"source": "patent US20050129676A1", "about": "(ADHEREX TECHNOLOGIES, published 2005)", "key": {"[1]": {"target": "T1, Fc-E-cadherin chimeric protein", "T1 construct": "It was captured on immobilised protein A on a CM5 chip (about 3500 RU)", "T1 sequence (P12830 155-709, change not shown)": "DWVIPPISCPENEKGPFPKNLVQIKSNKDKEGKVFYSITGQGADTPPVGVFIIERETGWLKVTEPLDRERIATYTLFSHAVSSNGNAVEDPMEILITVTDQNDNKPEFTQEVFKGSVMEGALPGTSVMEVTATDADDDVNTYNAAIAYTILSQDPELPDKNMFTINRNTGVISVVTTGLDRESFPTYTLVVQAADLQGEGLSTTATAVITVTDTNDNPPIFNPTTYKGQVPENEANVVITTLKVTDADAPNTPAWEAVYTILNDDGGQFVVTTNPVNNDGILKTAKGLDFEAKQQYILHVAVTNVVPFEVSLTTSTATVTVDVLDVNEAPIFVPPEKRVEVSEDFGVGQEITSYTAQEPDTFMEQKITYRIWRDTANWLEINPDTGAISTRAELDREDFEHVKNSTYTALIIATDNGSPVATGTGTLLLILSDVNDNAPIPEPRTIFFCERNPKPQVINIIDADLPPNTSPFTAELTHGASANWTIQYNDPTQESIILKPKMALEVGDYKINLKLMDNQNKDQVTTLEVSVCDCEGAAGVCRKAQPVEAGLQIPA", "experiment": "SPR (BIAcore X), Fc-E-cadherin captured on protein A, peptide as analyte, 3 mM CaCl2, fit to binding isotherm", "method": "(§1) The binding of representative peptide modulating agents to Fc-E-cadherin chimeric protein in either the presence (3 mM CaCl₂) or absence of calcium was assessed using a BIAcore X™ Biosensor (Pharmacia Ltd., Sweden). Protein A was immobilized on the flow cells of a CM 5 sensor chip using a standard amine coupling method. The surfaces were activated with a 7 min injection of NHS/EDC, followed by a 7 min injection of protein A in 10 mM acetate pH 5.0 at a concentration of 50 ug/mL and blocked with a 7 min injection of 8 M ethanolamine, pH 8.2. […] Next, Fc-E-cadherin was injected over the protein A surface to be captured on the sensor chip.\n(§2) To test compound binding to these surfaces, candidate modulating agents were injected in a three-fold dilution series over the Fc-E-cadherin-coated surfaces using six concentrations and each concentration was repeated twice."}, "[2]": {"target": "T1, Fc-E-cadherin chimeric protein", "experiment": "SPR (BIAcore X), Fc-E-cadherin captured on protein A, peptide as analyte, no calcium, fit to binding isotherm", "method": "as §1, §2"}, "[3]": {"target": "T1, Fc-E-cadherin chimeric protein", "experiment": "SPR (BIAcore X), Fc-E-cadherin captured on protein A, peptide as analyte, 3 mM CaCl2, fit to binding isotherm; with Ca^++ (3 mM CaCl2)", "method": "as §1, §2"}}, "data": [{"binder": "H-DWVIPP-NH2 (Linear synthetic peptide; also called ADH254)", "note": "[H-DWVIPP-NH2]", "values": [{"measurement": "Kd", "setting": "[1]", "value": 34, "unit": "µM"}]}, {"binder": "H-DWVIP-NH2 (Linear synthetic peptide)", "note": "[H-DWVIP-NH2]", "values": [{"measurement": "Kd", "setting": "[1]", "value": 36.1, "unit": "µM"}, {"measurement": "Kd", "setting": "[2]", "value": 66, "unit": "µM"}]}, {"binder": "H-AWVIPP-NH2 (Linear synthetic peptide; analogue of H-DWVIPP-NH2)", "note": "[H-AWVIPP-NH2]", "values": [{"measurement": "Kd", "setting": "[1]", "value": 42, "unit": "µM"}]}, {"binder": "H-DWVIAP-NH2 (Linear synthetic peptide; analogue of H-DWVIPP-NH2)", "note": "[H-DWVIAP-NH2]", "values": [{"measurement": "Kd", "setting": "[1]", "value": 17, "unit": "µM"}]}, {"binder": "H-DWVIPA-NH2 (Linear synthetic peptide; analogue of H-DWVIPP-NH2)", "note": "[H-DWVIPA-NH2]", "values": [{"measurement": "Kd", "setting": "[1]", "value": 59, "unit": "µM"}]}, {"binder": "H-DWVAPP-NH2 (Linear synthetic peptide; analogue of H-DWVIPP-NH2)", "note": "[H-DWVAPP-NH2]", "values": [{"measurement": "Kd", "setting": "[3]", "value": 21000, "unit": "µM"}]}, {"binder": "H-PWVIPP-NH2 (Linear synthetic peptide; analogue of H-DWVIPP-NH2)", "note": "[H-PWVIPP-NH2]", "values": [{"measurement": "Kd", "setting": "[1]", "value": 543, "unit": "µM"}]}]}
